Results taken from the supplement of paper PMC9170038.

Tested on: MS2 coat protein
Test: apparent KD of MS2 coat protein; designed switch direction (-1 OFF switch, 1 ON switch): -1; higher = weaker reporter binding
How it was run: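 Designed RNA switches with common flanks were transcribed on Illumina chips by stalled E. coli RNA polymerase and titrated with SNAP-549-labelled MS2 coat protein, from 0.7 or 1.5 nM doubling to 3 µM, in Tris-HCl pH 7.5 buffer with KCl, MgCl2, BSA, DTT, tRNA and Tween-20. Steps lasted 0.8–1.5 h (lowest) to 10–20 min (highest). Titrations ran without input, with 200 uM small-molecule ligand, or with an oligonucleotide input. Normalised cluster fluorescence was curve-fitted, and apparent KD is the per-design median over clusters.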

[1] = input ligand: microRNA oligo, concentration not stated
[2] = Eterna round: R95, input ligand: FMN 200 uM
[3] = Eterna round: R95, input ligand: microRNA oligo, concentration not stated
[4] = Eterna round: R95, input ligand: none

Sequence: AGCGCCAUCGUGAGAUGGCGUAUUACAUGAGGAUCACCCAUGUAGGAUAUCGAUUGCUUUGCAGUCGAGAAGGGCAUGUACCAG [JL ENG3 3.80 Mod K] (Eterna round: R96, puzzle: Exclusion NG 3)
- apparent KD of MS2 coat protein (input ligand: FMN 200 uM): 54.7 nM
- apparent KD of MS2 coat protein [1]: 32.8 nM
- apparent KD of MS2 coat protein (input ligand: none): 46 nM

Sequence: AGCUAAAUAGGAUAUGCCCGGGAUAACAUGAGGAUCACCCAUGUGACCGAUUCAUGUCCUGCAGAAGGGUUUGGGA [Mod of ViennaUCT 6 - Jieux - Exclusion 5] (Eterna round: R97, puzzle: Exclusion 5)
- apparent KD of MS2 coat protein (input ligand: FMN 200 uM): 14.3 nM
- apparent KD of MS2 coat protein (input ligand: none): 13.5 nM

Sequence: AGCUAGAUAGGAUAUGCCCGAGAUAACAUGAGGAUCACCCAUGUGACCGAAUCUAAUCUAGCAGAAGGGUUUAGGA [Mod of ViennaUCT 16 - Jieux - Exclusion 5] (Eterna round: R97, puzzle: Exclusion 5)
- apparent KD of MS2 coat protein (input ligand: FMN 200 uM): 15.4 nM
- apparent KD of MS2 coat protein (input ligand: none): 15.1 nM

Sequence: AGCUAGUCAGGAUAUUCUAUUAAUUACAUGAGGAUCACCCAUGUGAAUGGGCAAGGGUGUGAAGAAGGGACUAGCG [Omei Ex5 A16] (Eterna round: R97, puzzle: Exclusion 5)
- apparent KD of MS2 coat protein (input ligand: FMN 200 uM): 305 nM
- apparent KD of MS2 coat protein (input ligand: none): 1030 nM

Sequence: AGCUAGUCAGGAUAUUCUGUUAAUUACAUGAGGAUCACCCAUGUGAAUGGACAAGGGUGUGAAGAAGGGACUAGCG [Omei Ex5 A15] (Eterna round: R97, puzzle: Exclusion 5)
- apparent KD of MS2 coat protein (input ligand: FMN 200 uM): 124 nM
- apparent KD of MS2 coat protein (input ligand: none): 248 nM

Sequence: AGCUAGUGCCGAGGAUAUACAUGAGGAUCACCCAUGUAGCCGUGAGGCUUUGUCUCACGGGAUAUGUAGAAGGCGGCGUUGGCA [JL ENG2 1.53] (Eterna round: R96, puzzle: Exclusion NG 2)
- apparent KD of MS2 coat protein (input ligand: FMN 200 uM): 34.1 nM
- apparent KD of MS2 coat protein [1]: 11.8 nM
- apparent KD of MS2 coat protein (input ligand: none): 18.3 nM

Sequence: AGCUGUGGCCGAGGAUAUCACAUGAGGAUCACCCAUGUAUAUGAUUAGGCCUGGUAACAGGCUCGUGAGAAGGCGGUCUCAGCA [Eli eng2 - 012] (Eterna round: R96, puzzle: Exclusion NG 2)
- apparent KD of MS2 coat protein (input ligand: FMN 200 uM): 28.4 nM
- apparent KD of MS2 coat protein [1]: 19.5 nM
- apparent KD of MS2 coat protein (input ligand: none): 31.3 nM

Sequence: AGCUGUGGCCGAGGAUAUCACGAACCAUGGAAAACCAUGGAACUCAAACAUGAGGAUCACCCAUGUGAGAAGGCGGUCUCAGCA [Eli eng2 - 018] (Eterna round: R96, puzzle: Exclusion NG 2)
- apparent KD of MS2 coat protein [1]: 15.2 nM

Sequence: AGCUGUGGCCGAGGAUAUCUAAUAGUCCCAACCGAAAUAUAAUCGGACAUGAGGAUCACCCAUGUAGAGAAGGCGGUCUCAGCA [Eli eng2 - 069] (Eterna round: R96, puzzle: Exclusion NG 2)
- apparent KD of MS2 coat protein (input ligand: FMN 200 uM): 286 nM
- apparent KD of MS2 coat protein [1]: 102 nM
- apparent KD of MS2 coat protein (input ligand: none): 113 nM

Sequence: AGCUGUGGCCGAGGAUAUCUGACUUCAAUAACCGAAAUAUAAUCGGACAUGAGGAUCACCCAUGUAGAGAAGGCGGUCUCAGCA [Eli eng2 - 083] (Eterna round: R96, puzzle: Exclusion NG 2)
- apparent KD of MS2 coat protein [1]: 12.5 nM

Sequence: AGCUGUGGCCGAGGAUAUCUGUCUCAUAAAACCGAAAUAUAAUCGGACAUGAGGAUCACCCAUGUAGAGAAGGCGGUCUCAGCA [Eli eng2 - 096] (Eterna round: R96, puzzle: Exclusion NG 2)
- apparent KD of MS2 coat protein [1]: 15.8 nM

Sequence: AGCUGUGGCCGAGGAUAUGACAUGAGGAUCACCCAUGUACCAGAUUAGGCCUGGUAACAGGCUCAUCAGAAGGCGGUCUCAGCA [Eli eng2 - 016] (Eterna round: R96, puzzle: Exclusion NG 2)
- apparent KD of MS2 coat protein (input ligand: FMN 200 uM): 13.5 nM
- apparent KD of MS2 coat protein [1]: 10.7 nM
- apparent KD of MS2 coat protein (input ligand: none): 14.8 nM

Sequence: AGCUUUGCUGCUCGUCCCAACAUGAGGAUCACCCAUGUUCUUAUGAAACCAUCUAGCCUAGAUGGGUCUUGCCAAAG [Eternabot (Original) Solution 47] (Eterna round: R97, puzzle: Sensor, turn-off variant 1)
- apparent KD of MS2 coat protein (input ligand: FMN 200 uM): 27.1 nM
- apparent KD of MS2 coat protein (input ligand: none): 29.1 nM

Sequence: AGCUUUUUGCUCGUCUUAUACAUGAGGAUCACCCAUGUAUUGGACCACAUCGAUAGAUGUGGGCCAAGAAGCAUGGG [Omdei Mir OFFv1 C2] (Eterna round: R97, puzzle: Sensor, turn-off variant 1)
- apparent KD of MS2 coat protein (input ligand: FMN 200 uM): 133 nM
- apparent KD of MS2 coat protein (input ligand: none): 176 nM

Sequence: AGGAAACAUGAGGAUCACCCAUGUGAGGAUAUGAAAAAGAAAAGAAAAGAAAGAAGAAUCAGAAGGCACAAAGG [Mat - Mod of Hog D1] (puzzle: Exclusion 1)
- apparent KD of MS2 coat protein [2]: 52.9 nM
- apparent KD of MS2 coat protein [3]: 32 nM
- apparent KD of MS2 coat protein [4]: 45.9 nM

Sequence: AGGAAGCAAGGAUAUACGAGGAGAAGGUGGAGAGUUAAAGGACAUGAGGAUCACCCAUGUAGAAGGUGCGAGAA [JR_Exclu2_Sub045] (puzzle: Exclusion 2)
- apparent KD of MS2 coat protein [3]: 52.2 nM

Sequence: AGGAGCAGAGGGAGAUCCAACAUGAGGAUCACCCAUGUCUCAUAAGCUUUUUGCUCAUCUUAUUGUACCUUGGUGCA [Mat - Sensor v3 - turn-off var 1 - JL Mod - D27] (puzzle: Sensor v3, turn-off variant 1)
- apparent KD of MS2 coat protein [2]: 29.2 nM
- apparent KD of MS2 coat protein [3]: 12.5 nM
- apparent KD of MS2 coat protein [4]: 22.3 nM

Sequence: AGGCUGUCAGGAUAUCUGCGCCGCUGUACGCGGCGUUAUAAAGAGAAGGGACAUGAGGAUCACCCAUGUCCUCA [EX4 B.14] (Eterna round: R97, puzzle: Exclusion 4)
- apparent KD of MS2 coat protein (input ligand: FMN 200 uM): 109 nM
- apparent KD of MS2 coat protein (input ligand: none): 19.5 nM

Sequence: AGGGAGUGAGGAUAUACGAAAUAAAAAGAAGGAAAAAAAGAGUAGAAGGCACAUGAGGAUCACCCAUGUGAGAA [milkweed 12] (Eterna round: R96, puzzle: Exclusion 4)
- apparent KD of MS2 coat protein [1]: 16.9 nM

Sequence: AGGGAUAAAGGAUAUACAUGAGGAUCACCCAUGUUGAGGAAGGUUAGAUGAGGAGUAAGUAGAAGGUUAGACGA [JR_Exclu3_Sub088] (puzzle: Exclusion 3)
- apparent KD of MS2 coat protein [2]: 45.7 nM
- apparent KD of MS2 coat protein [3]: 40.7 nM
- apparent KD of MS2 coat protein [4]: 61.3 nM

Sequence: AGGUCACAUGAGGAUCACCCAUGUGAGGAUAUAGACUCAAGAGCUUCGGCUCUCAAGUCUAGAAGGCGCUAUGA [EX1 #50] (Eterna round: R97, puzzle: Exclusion 1)
- apparent KD of MS2 coat protein (input ligand: FMN 200 uM): 26.5 nM
- apparent KD of MS2 coat protein (input ligand: none): 28.5 nM

Sequence: AGGUGCUUCUGGAAACAUGAGGAUCACCCAUGUUGAGUUAGCGAGGAUAUCGGUAACCAUUGUUAUGAGAAGGCGCAAACCAGA [Ex NG3 #37] (Eterna round: R96, puzzle: Exclusion NG 3)
- apparent KD of MS2 coat protein (input ligand: FMN 200 uM): 19.9 nM
- apparent KD of MS2 coat protein [1]: 11.4 nM
- apparent KD of MS2 coat protein (input ligand: none): 20.2 nM

Sequence: AGGUGUAGAGGAUAUCUAUCCUCGCACAUGAGGAUCACCCAUGUCCUGGUCACCAAGGACGGAGAAGGCUACACCA [Omei Ex5 D20] (Eterna round: R97, puzzle: Exclusion 5)
- apparent KD of MS2 coat protein (input ligand: FMN 200 uM): 427 nM
- apparent KD of MS2 coat protein (input ligand: none): 773 nM

Sequence: AGUAACAGAGGAUAUACUAUUUUAUGUAUUUAUUAUUUUGAACAUGAGGAUCACCCAUGUAGAAGGCUGAAUAA [JMF 89] (puzzle: Exclusion 2)
- apparent KD of MS2 coat protein [3]: 23.3 nM

Sequence: AGUAACAGAGGAUAUACUAUUUUAUGUGUUUAUUGUUUUAAACAUGAGGAUCACCCAUGUAGAAGGCUGAAUAA [JMF 86] (puzzle: Exclusion 2)
- apparent KD of MS2 coat protein [3]: 28.4 nM

Sequence: AGUAACAGAGGAUAUACUAUUUUAUGUGUUUGUUGUUUUGAACAUGAGGAUCACCCAUGUAGAAGGCUGAAUAA [JMF 96] (puzzle: Exclusion 2)
- apparent KD of MS2 coat protein [3]: 24.1 nM

Sequence: AGUAACAGAGGAUAUACUGUUUUAUGUGUUUGUUAUUUUAAACAUGAGGAUCACCCAUGUAGAAGGCUGAAUGA [JMF 99] (puzzle: Exclusion 2)
- apparent KD of MS2 coat protein [3]: 24.7 nM

Sequence: AGUAACCGUCACGAAAGUGAUGGUUACACAGGCAAAUGUACAUGAGGAUCACCCAUGUCCUCAAUUGCUCGUCUUAU [Sensor 3 - 53] (puzzle: Sensor v3, turn-off variant 2)
- apparent KD of MS2 coat protein [2]: 115 nM
- apparent KD of MS2 coat protein [3]: 181 nM
- apparent KD of MS2 coat protein [4]: 120 nM

Sequence: AGUAACUAUCACGAAAGUGAUAGUUACACAAGCAGUGAAACAUGAGGAUCACCCAUGUCCUCAUUUGCUCGUCUUAU [Sensor 3 - 25] (puzzle: Sensor v3, turn-off variant 2)
- apparent KD of MS2 coat protein [2]: 53.1 nM
- apparent KD of MS2 coat protein [3]: 390 nM
- apparent KD of MS2 coat protein [4]: 52.2 nM

Sequence: AGUACAAACACGAAAGUGUUUGUACAAUAAGCUUGUGGAACAUGAGGAUCACCCAUGUCCUCAUAAGCUCGUCUUAU [Mat - Sensor v3 - Turn-off var 2 - D29] (puzzle: Sensor v3, turn-off variant 2)
- apparent KD of MS2 coat protein [2]: 15.7 nM
- apparent KD of MS2 coat protein [3]: 87.1 nM
- apparent KD of MS2 coat protein [4]: 14.5 nM

Sequence: AGUACUAACACGAAAGUGUUAGUACAAUAAGCUUGUGAAACAUGAGGAUCACCCAUGUCCUCGUAAGCUCGUCUUAU [salish99_TOv2_r3_048] (puzzle: Sensor v3, turn-off variant 2)
- apparent KD of MS2 coat protein [2]: 40 nM
- apparent KD of MS2 coat protein [3]: 620 nM
- apparent KD of MS2 coat protein [4]: 37.7 nM

Sequence: AGUACUAACACGAAAGUGUUAGUACAAUAAGCUUGUGGUACAUGAGGAUCACCCAUGUCCUCAUAAGCUCGUCUUAU [JL-sv3-2.13 mat747 mod] (puzzle: Sensor v3, turn-off variant 2)
- apparent KD of MS2 coat protein [2]: 22.5 nM
- apparent KD of MS2 coat protein [3]: 62.2 nM
- apparent KD of MS2 coat protein [4]: 20.7 nM

Sequence: AGUACUAACACGAGAGUGUUAGUACUAUAAGCUUGUGUUACAUGAGGAUCACCCAUGUCCUCAUAAGCUCGUCUUAG [Mat - Sensor v3 - Turn-off var 2 - D67] (puzzle: Sensor v3, turn-off variant 2)
- apparent KD of MS2 coat protein [2]: 39.3 nM
- apparent KD of MS2 coat protein [3]: 99 nM
- apparent KD of MS2 coat protein [4]: 44.6 nM

Sequence: AGUACUAACACGAGUGUGUUAGUACAAUAAGCUUGUGAAACAUGAGGAUCACCCAUGUCCUCAUAAGCUCGUCUUAU [salish99_TOv2_r3_073] (puzzle: Sensor v3, turn-off variant 2)
- apparent KD of MS2 coat protein [2]: 17.8 nM
- apparent KD of MS2 coat protein [3]: 516 nM
- apparent KD of MS2 coat protein [4]: 15.1 nM
